# Data: PMC12507662 (Nature, 2025)
# Molecular target: postfusion gB (ectodomain of wild type) (herpes simplex virus 1 (HSV-1), UniProt A1Z0P7)
# Test: grating-coupled interferometry; gB immobilised by C-terminal Twin-Strep-tag on Strep-Tactin XT chip (400 pg mm^-2); 25 °C; 20 mM HEPES pH 8.0, 300 mM NaCl; waveRAPID tight binder protocol, 200 nM Nb1_gbHSV, regeneration with 3 M GuHCl
# Conditions: both partners purified
binder,measurement,value
"Nb1_gbHSV (VHH, alpaca VHH from an immune library; Unlabelled form used for grating-coupled interferometry, cryo-EM with stabilized HSV-1 gB and plaque reduction; also called the nanobody; neutralizing nanobody; source: E. coli SHuffle Express, cytoplasmic, purified (Ni2+ chelate column, eluted by cleaving the tag with Ulp1p)) VHH: QVQLVESGGGSVQPGGSLRLSCAASASGRLSMSGALGWYRQVQGKSRELVATITDRSSTNYADSVKGRFTISIDDAENTMYLQMNSLKPEDTGVYYCNARWRGMNVWGKGTRVTVSS",binding result,no binding (tested: 200 nM)
